According to US20120045438A1 (Janssen / Centocor, published 2012):

target: T1, human IL-13 R130Q variant (R110Q of the mature chain) (human, UniProt P35225 35-146, Biotinylated on amines (NHS-LC-biotin, 4:1) in ELISA, panning and competition assays. The letters are unchanged.); test: Ra2 binding inhibition ELISA, mAb in crude HEK293 supernatant, IL-13 binding to IL-13Ra2
T1 construct: R130Q counts from Met 1 of the signal peptide, R110Q on the mature chain; Bought from Peprotech; also called IL-13 R110Q; b-R130Q
T1 sequence (P35225 35-146 limits assumed, stated change not applied): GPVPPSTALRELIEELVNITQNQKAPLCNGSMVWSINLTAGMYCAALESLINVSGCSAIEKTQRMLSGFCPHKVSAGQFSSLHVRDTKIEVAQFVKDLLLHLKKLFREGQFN

| Binder | % Ra2 Binding Inhibition [%] |
| --- | --- |
| mAb with Lc 3D01 (Lc6 variant) and Hc2 (antibody, V domains shown, human IgG1) VH: QVTLKESGPVLVKPTETLTLTCTVSGFSLSTYGMGVGWIRQPPGKALEWLAHIWWDDVKRYNPALKSRLTISKDTSKSQVVLTMTNMDPVDTATYYCARMGSDYDVWFDYWGQGTLVTVSS VL: EIVLTQSPATLSLSPGERATLSCRASKSISKYLAWYQQKPGQAPRLLIYSGSTLQSGIPARFSGSGSGTDFTLTISSLEPEDFAVYYCQQHVGGPYTFGQGTKLEIK | 58.5 |
| mAb with Lc 5A02 (Lc6 variant) and Hc2 (antibody, V domains shown, human IgG1) VH: QVTLKESGPVLVKPTETLTLTCTVSGFSLSTYGMGVGWIRQPPGKALEWLAHIWWDDVKRYNPALKSRLTISKDTSKSQVVLTMTNMDPVDTATYYCARMGSDYDVWFDYWGQGTLVTVSS VL: EIVLTQSPATLSLSPGERATLSCRASKSISKYLAWYQQKPGQAPRLLIYSGSTLQSGIPARFSGSGSGTDFTLTISSLEPEDFAVYYCQQQDYGPYTFGQGTKLEIK | 78.4 |
| mAb with Lc 3E03 (Lc6 variant) and Hc2 (antibody, V domains shown, human IgG1) VH: QVTLKESGPVLVKPTETLTLTCTVSGFSLSTYGMGVGWIRQPPGKALEWLAHIWWDDVKRYNPALKSRLTISKDTSKSQVVLTMTNMDPVDTATYYCARMGSDYDVWFDYWGQGTLVTVSS VL: EIVLTQSPATLSLSPGERATLSCRASKSISKYLAWYQQKPGQAPRLLIYSGSTLQSGIPARFSGSGSGTDFTLTISSLEPEDFAVYYCQQHNHGPYTFGQGTKLEIK | 70.9 |
| mAb with Lc 3G02 (Lc6 variant) and Hc2 (antibody, V domains shown, human IgG1) VH: QVTLKESGPVLVKPTETLTLTCTVSGFSLSTYGMGVGWIRQPPGKALEWLAHIWWDDVKRYNPALKSRLTISKDTSKSQVVLTMTNMDPVDTATYYCARMGSDYDVWFDYWGQGTLVTVSS VL: EIVLTQSPATLSLSPGERATLSCRASKSISKYLAWYQQKPGQAPRLLIYSGSTLQSGIPARFSGSGSGTDFTLTISSLEPEDFAVYYCQQHLNGPYTFGQGTKLEIK | 66.9 |
| mAb with Lc 3E05 (Lc6 variant) and Hc2 (antibody, V domains shown, human IgG1) VH: QVTLKESGPVLVKPTETLTLTCTVSGFSLSTYGMGVGWIRQPPGKALEWLAHIWWDDVKRYNPALKSRLTISKDTSKSQVVLTMTNMDPVDTATYYCARMGSDYDVWFDYWGQGTLVTVSS VL: EIVLTQSPATLSLSPGERATLSCRASKSISKYLAWYQQKPGQAPRLLIYSGSTLQSGIPARFSGSGSGTDFTLTISSLEPEDFAVYYCQQPLDTPYTFGQGTKLEIK | 70.8 |
| mAb with Lc 3G01 (Lc6 variant) and Hc2 (antibody, V domains shown, human IgG1) VH: QVTLKESGPVLVKPTETLTLTCTVSGFSLSTYGMGVGWIRQPPGKALEWLAHIWWDDVKRYNPALKSRLTISKDTSKSQVVLTMTNMDPVDTATYYCARMGSDYDVWFDYWGQGTLVTVSS VL: EIVLTQSPATLSLSPGERATLSCRASKSISKYLAWYQQKPGQAPRLLIYSGSTLQSGIPARFSGSGSGTDFTLTISSLEPEDFAVYYCQQPLDVPYTFGQGTKLEIK | 68.4 |

More lines, now with the values ahead:

| % Ra2 Binding Inhibition [%] | Binder |
| --- | --- |
| 72.8 | mAb with Lc 5D03 (Lc6 variant) and Hc2 (antibody, V domains shown, human IgG1) VH: QVTLKESGPVLVKPTETLTLTCTVSGFSLSTYGMGVGWIRQPPGKALEWLAHIWWDDVKRYNPALKSRLTISKDTSKSQVVLTMTNMDPVDTATYYCARMGSDYDVWFDYWGQGTLVTVSS VL: EIVLTQSPATLSLSPGERATLSCRASKSISKYLAWYQQKPGQAPRLLIYSGSTLQSGIPARFSGSGSGTDFTLTISSLEPEDFAVYYCQQHSYGPYTFGQGTKLEIK |
| 63 | mAb with Lc 5B03 (Lc6 variant) and Hc2 (antibody, V domains shown, human IgG1) VH: QVTLKESGPVLVKPTETLTLTCTVSGFSLSTYGMGVGWIRQPPGKALEWLAHIWWDDVKRYNPALKSRLTISKDTSKSQVVLTMTNMDPVDTATYYCARMGSDYDVWFDYWGQGTLVTVSS VL: EIVLTQSPATLSLSPGERATLSCRASKSISKYLAWYQRKPGQAPRLLIYSGSTLQSGIPARFSGSGSGTDFTLTISSLEPEDFAVYYCQQHNEAPYTFGQGTKLEIK |
